B1: CPEB3 Ribozyme (parent)
chain: GGGGGCCACAGCAGAAGCGUUCACGUCGCGGCCCCUGUCAGAUUCUGGUGAAUCUGCGAAUUCUGCUGU

In the series the parent is B1. Nature of the series: self-cleavage, relative activity (ratio to wild type); higher = more cleavage; co-transcriptional.
Regarding GGGGGCCACAGCAGAAGCGUUCACGUCGCGGCCCCUGUGAGAUUCUGGUGAAUCUGCGAAUUCUGCUUU [C39G G68U], the self-cleavage is 0.988.

Consider GGGGGCCACAGCAGAAGCGUUCACGUCGCGGCCCCUGUAAGAUUCUGGUGAAUCUGCGAAUUCAGCUGU [C39A U64A], for which the self-cleavage came to 0.467.

For the variant GGGGGCCACAGCAGAAGCGUUCACGUCGCGGCCCCUGUAAGAUUCUGGUGAAUCUGCGAAUUCGGCUGU [C39A U64G], the self-cleavage stood at 0.61. The value for GGGGGCCACAGCAGAAGCGUUCACGUCGCGGCCCCUGUGAGAUUCUGGUGAAUCUGCGAACUCUGCUGU [C39G U61C] was 0.394.

As to GGGGGCCACAGCAGAAGCGUUCACGUCGCGGCCCCUGUGAGAUUCUGGUGAAUCUGAGAAUUCUGCUGU [C39G C57A], the self-cleavage was determined as 0.303. For the variant GGGGGCCACAGCAGAAGCGUUCACGUCGCGGCCCCUGUGAGAUUCUGGUGAAUCUGGGAAUUCUGCUGU [C39G C57G], the self-cleavage was found to be 0.361. The value for GGGGGCCACAGCAGAAGCGUUCACGUCGCGGCCCCUGUGAGAUUCUGGUGAAUCUGUGAAUUCUGCUGU [C39G C57U] was 0.327. The value for GGGGGCCACAGCAGAAGCGUUCACGUCGCGGCCCCUGUUAGAUUCUGGUGAAUCUGCGCAUUCUGCUGU [C39U A59C] was 0.445; that for GGGGGCCACAGCAGAAGCGUUCACGUCGCGGCCCCUGUAAGAUUCUGGUGAAUCUGCGAAUCCUGCUGU [C39A U62C] was 0.595; that for GGGGGCCACAGCAGAAGCGUUCACGUCGCGGCCCCUGUAAGAUUCUGGUGAAUCUGCGAAUGCUGCUGU [C39A U62G] was 0.428. For the variant GGGGGCCACAGCAGAAGCGUUCACGUCGCGGCCCCUGUGAGAUUCUGGUGAAUCGGCGAAUUCUGCUGU [C39G U55G], the self-cleavage turned out to be 0.863. Regarding GGGGGCCACAGCAGAAGCGUUCACGUCGCGGCCCCUGUGAGAUUCUGGUGAAUCCGCGAAUUCUGCUGU [C39G U55C], the self-cleavage was 0.693. In the case of GGGGGCCACAGCAGAAGCGUUCACGUCGCGGCCCCUGUGAGAUUCUGCUGAAUCUGCGAAUUCUGCUGU [C39G G48C], the self-cleavage was 0.945.

With GGGGGCCACAGCAGAAGCGUUCACGUCGCGGCCCCUGUGAGAUUCUGGUAAAUCUGCGAAUUCUGCUGU [C39G G50A], the self-cleavage was found to be 0.962.

GGGGGCCACAGCAGAAGCGUUCACGUCGCGGCCCCUGUGAGAUUCUGGUUAAUCUGCGAAUUCUGCUGU [C39G G50U]: the self-cleavage was 0.957. With GGGGGCCACAGCAGAAGCGUUCACGUCGCGGCCCCUGUUAGAUUCUGGUGCAUCUGCGAAUUCUGCUGU [C39U A51C], the self-cleavage is 0.737. As for GGGGGCCACAGCAGAAGCGUUCACGUCGCGGCCCCUGUUAGAUUCUGGUGGAUCUGCGAAUUCUGCUGU [C39U A51G], the self-cleavage worked out at 0.892.

Consider GGGGGCCACAGCAGAAGCGUUCACGUCGCGGCCCCUGUAAGAUUCUGGUGAAUCUGCGAAUUCUGCUGA [C39A U69A], for which the self-cleavage was determined as 0.908.

As to GGGGGCCACAGCAGAAGCGUUCACGUCGCGGCCCCUGUAAGAUUCUGGUGAAUCUGCGAAUUCUGCUGC [C39A U69C], the self-cleavage came out at 1.01. On to GGGGGCCACAGCAGAAGCGUUCACGUCGCGGCCCCUGUAAGAUUCUGGUGAAUCUGCGAAAUCUGCUGU [C39A U61A], for which the self-cleavage was determined as 0.601. As for GGGGGCCACAGCAGAAGCGUUCACGUCGCGGCCCCUGUGAGAUUCUGGUGAAUCUGCGAAUUCUGAUGU [C39G C66A], the self-cleavage was determined as 0.531. With GGGGGCCACAGCAGAAGCGUUCACGUCGCGGCCCCUGUGAGAUUCUGGUGAAUCUGCGAAUUCUUCUGU [C39G G65U] the figure was 0.442; with GGGGGCCACAGCAGAAGCGUUCACGUCGCGGCCCCUGUGAGAUUCUGGUGAAUCUGCGAAUUCUCCUGU [C39G G65C], 0.297. Turning to GGGGGCCACAGCAGAAGCGUUCACGUCGCGGCCCCUGUUUGAUUCUGGUGAAUCUGCGAAUUCUGCUGU [C39U A40U], the self-cleavage was 0.624. With GGGGGCCACAGCAGAAGCGUUCACGUCGCGGCCCCUGUGAGAUUCUGGGGAAUCUGCGAAUUCUGCUGU [C39G U49G] the figure was 0.994; with GGGGGCCACAGCAGAAGCGUUCACGUCGCGGCCCCUGUGAGAUUCUGGUGAAUCUGCGAAUUCUGCUGA [C39G U69A], 0.967; with GGGGGCCACAGCAGAAGCGUUCACGUCGCGGCCCCUGUGAGAUUCUGGUGAAUCUGCGAAUUCUGCUGG [C39G U69G], 1. The value for GGGGGCCACAGCAGAAGCGUUCACGUCGCGGCCCCUGUUAGUUUCUGGUGAAUCUGCGAAUUCUGCUGU [C39U A42U] was 0.736; that for GGGGGCCACAGCAGAAGCGUUCACGUCGCGGCCCCUGUGAGAUUCUGGUGAAUCUGCCAAUUCUGCUGU [C39G G58C] was 0.929; that for GGGGGCCACAGCAGAAGCGUUCACGUCGCGGCCCCUGUAAGAUUCUGGUGAAUCAGCGAAUUCUGCUGU [C39A U55A] was 0.825. With GGGGGCCACAGCAGAAGCGUUCACGUCGCGGCCCCUGUGAGACUCUGGUGAAUCUGCGAAUUCUGCUGU [C39G U43C] the figure was 0.75; with GGGGGCCACAGCAGAAGCGUUCACGUCGCGGCCCCUGUGAGAUUCUGGUGAAUCUGCGAAUUCAGCUGU [C39G U64A], 0.636; with GGGGGCCACAGCAGAAGCGUUCACGUCGCGGCCCCUGUGAAAUUCUGGUGAAUCUGCGAAUUCUGCUGU [C39G G41A], 0.486. As for GGGGGCCACAGCAGAAGCGUUCACGUCGCGGCCCCUGUGAGAUUCUGGUGAAUCUGCGAAUUCUGCAGU [C39G U67A], the self-cleavage was 0.927. In the case of GGGGGCCACAGCAGAAGCGUUCACGUCGCGGCCCCUGUGAGAUUCUGGUGAAUCUGCGAAUUCUGCGGU [C39G U67G], the self-cleavage came to 0.965.

Consider GGGGGCCACAGCAGAAGCGUUCACGUCGCGGCCCCUGUGAGAUUCCGGUGAAUCUGCGAAUUCUGCUGU [C39G U46C], for which the self-cleavage was found to be 0.903. Regarding GGGGGCCACAGCAGAAGCGUUCACGUCGCGGCCCCUGUGGGAUUCUGGUGAAUCUGCGAAUUCUGCUGU [C39G A40G], the self-cleavage turned out to be 0.812. On to GGGGGCCACAGCAGAAGCGUUCACGUCGCGGCCCCUGUGAGAUUCUGGUGAAUCUGCGGAUUCUGCUGU [C39G A59G], for which the self-cleavage came to 0.947.

Turning to GGGGGCCACAGCAGAAGCGUUCACGUCGCGGCCCCUGUGAGAUUCUGGUGAAUCUGCGAAUUGUGCUGU [C39G C63G], the self-cleavage came to 0.513.

For the origin of these results see the RNAGym collection of RNA variant scans (doi:10.7554/elife.80360).
